Data as given in patent US20190300590A1 (PROTAGONIST THERAPEUTICS, published 2019).
*1 amine or outer side, *2 acyl side, *3 side chain or, on linkers, in order; H or OH if unused. Bridges are numbered along the chain shown (N, C = ends). Primed or numbered codes have the meaning given here. [ ]: non-standard residue; d: D form. Phe(4-OMe)(5) = O-methyl-L-tyrosine (4-methoxy-Phe), COc1ccc(C[C@H](N[*:1])C(=O)[*:2])cc1; Phe(4-OMe)(4) = O-methyl-L-tyrosine, COc1ccc(C[C@H](N[*:1])C(=O)[*:2])cc1; Bip = N[C@@H](Cc1ccc(-c2ccccc2)cc1)C(=O)O; 2Nal = N[C@@H](Cc1ccc2ccccc2c1)C(=O)O; AEF = NCCOc1ccc(C[C@H](N)C(=O)O)cc1; Gly(octyl) = CCCCCCCC[C@H](N)C(=O)O; Pen = CC(C)(S)[C@H](N)C(=O)O; hLeu = CC(C)CC[C@H](N)C(=O)O; αMeK = C[C@](N)(CCCCN)C(=O)O; Abu = CC[C@H](N)C(=O)O; Dap = NC[C@H](N)C(=O)O; Aib = CC(C)(N)C(=O)O; AEA = NCCOCC(=O)O

T1: IL-23R on DB cells (human, UniProt Q5VWK5 24-629)
T1 sequence (looked up): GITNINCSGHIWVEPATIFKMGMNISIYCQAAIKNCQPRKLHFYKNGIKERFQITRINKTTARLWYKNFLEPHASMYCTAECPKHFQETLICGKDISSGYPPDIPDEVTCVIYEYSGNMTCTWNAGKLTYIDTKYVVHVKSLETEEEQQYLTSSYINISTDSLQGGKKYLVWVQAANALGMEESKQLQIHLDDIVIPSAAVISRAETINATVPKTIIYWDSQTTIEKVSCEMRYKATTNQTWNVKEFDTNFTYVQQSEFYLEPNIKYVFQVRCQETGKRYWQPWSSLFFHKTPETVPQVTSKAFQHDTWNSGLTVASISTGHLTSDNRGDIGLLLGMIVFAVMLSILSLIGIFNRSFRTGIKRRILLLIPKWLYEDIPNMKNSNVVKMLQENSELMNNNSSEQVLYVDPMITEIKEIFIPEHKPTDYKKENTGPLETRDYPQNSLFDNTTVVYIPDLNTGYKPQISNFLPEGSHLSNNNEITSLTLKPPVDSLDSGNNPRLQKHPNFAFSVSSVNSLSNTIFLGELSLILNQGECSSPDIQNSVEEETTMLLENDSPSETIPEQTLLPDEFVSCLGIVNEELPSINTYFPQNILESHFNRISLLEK

T2: IL23R_huFC (human, UniProt Q5VWK5 24-353)
T2 sequence (looked up): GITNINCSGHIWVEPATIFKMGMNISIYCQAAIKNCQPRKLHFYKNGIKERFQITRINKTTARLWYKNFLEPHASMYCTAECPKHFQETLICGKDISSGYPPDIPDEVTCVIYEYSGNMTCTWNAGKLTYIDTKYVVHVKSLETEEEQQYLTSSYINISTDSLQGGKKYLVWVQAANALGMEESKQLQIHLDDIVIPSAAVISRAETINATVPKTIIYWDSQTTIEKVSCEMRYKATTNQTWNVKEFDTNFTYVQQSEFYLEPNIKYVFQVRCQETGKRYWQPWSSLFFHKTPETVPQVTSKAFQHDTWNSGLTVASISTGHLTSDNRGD

T3: IL-23R on human cells (IL-23R-expressing DB cells; human NK cells) (human, UniProt Q5VWK5 24-629)
T3 sequence (looked up): T1 sequence (looked up)

B1: Ac-[Pen]-QTWQ-[Pen]-[2-Nal]-[2-Nal]-[α-MeLys]-ENG-NH2 (peptide)
peptide: Ac-[Pen]QTWQ[Pen][2Nal][2Nal][αMeK]ENG-NH2
modifications: disulfide 1-6
SMILES: CC(=O)N[C@@H]1C(=O)N[C@@H](CCC(N)=O)C(=O)N[C@@H]([C@@H](C)O)C(=O)N[C@@H](Cc2c[nH]c3ccccc23)C(=O)N[C@@H](CCC(N)=O)C(=O)N[C@H](C(=O)N[C@@H](Cc2ccc3ccccc3c2)C(=O)N[C@@H](Cc2ccc3ccccc3c2)C(=O)N[C@@](C)(CCCCN)C(=O)N[C@@H](CCC(=O)O)C(=O)N[C@@H](CC(N)=O)C(=O)NCC(N)=O)C(C)(C)SSC1(C)C

What was measured:
[1] = biological target: T1, IL-23R on DB cells; experiment: cell-based or functional assay
[2] = biological target: T2, IL23R_huFC; experiment: human ELISA vs IL-23
[3] = biological target: T3, IL-23R on human cells …; experiment: cell-based or functional assay

Binder | pStat3 HTRF IC50 [1] | IC50 [2] | pStat3 HTRF IC50 [3]
Ac-[Pen][Dap]TWQ[Pen][AEF][2Nal][αMeK]ENG-NH2 (disulfide 1-6 (inferred)) [Ac-[Pen]-[Dap]-TWQ-[Pen]-[Phe[4-(2-aminoethoxy)]-[2-Nal]-[α-MeLys]-ENG-NH2] | < 10 nM |  | 
Ac-[Abu]QTWQC[AEF]W[αMeK]K(Ac)[Dap]G-NH2 (thioether 1-6) [Ac-Cyclo-[[Abu]-QTWQC]-[Phe[4-(2-aminoethoxy)]]-W-[α-MeLys]-[Lys(Ac)]-[Dap]-G-NH2] |  | > 1000 nM | 
XQTWQXFXLENA (Ac; Pen-Pen disulfide; Phe[4-(2-aminoethoxy)]; 2-Nal; hLeu; NH2) [Ac-[Pen]-QTWQ-[Pen]-[Phe[4-(2-aminoethoxy)]-[2-Nal]-[hLeu]-ENA-NH2] | 10 to 25 nM |  | 
Ac-[Abu]QT[Bip]QC[Phe(4-OMe)(4)][2Nal][αMeK]K(Ac)NG-NH2 (thioether 1-6) [Ac-Cyclo-[[Abu]-QT-[Bip]-QC]-[Phe(4-OMe)]-[2-Nal][α-MeLys]-[Lys(Ac)]-NG-NH2] |  | ~10000 nM | 
Ac-R[Abu]QTWQC[AEF][2Nal][αMeK]ENN-NH2 (thioether 2-7) [Ac-Arg-Cyclo-[[Abu]-QTWQC]-[Phe[4-(2-aminoethoxy)]]-[2-Nal]-[α-MeLys]-ENN-NH2] |  | < 10 nM | < 10 nM
Ac-[Abu]QTWQC[AEF][2Nal][αMeK]K(Ac)NG[AEA][dK]-NH2 (thioether 1-6) [Ac-Cyclo-[[Abu]-QTWQC]-[Phe[4-(2-aminoethoxy)]]-[2-Nal][α-MeLys]-[Lys(Ac)]--NG-[AEA]-[(D)Lys]-NH2] |  | < 10 nM | < 10 nM
XQTWQCFXKXNG (as bracketed in name; thioether cyclo) [Ac-Cyclo-[[Abu]-QTWQC]-[Phe[4-(2-aminoethoxy)]]-[2-Nal]-[α-MeLys]-[Orn]-NG-NH2] |  | < 10 nM | < 10 nM
Ac-[Pen]TTWQ[Pen][AEF][2Nal][Aib]K(Ac)NN-NH2 (disulfide 1-6 (inferred)) [Ac-[Pen]-TTWQ-[Pen]-[Phe[4-(2-aminoethoxy)]-[2-Nal]-[Aib]-[Lys(Ac)]-NN-NH2] | < 10 nM |  | 
Ac-[Abu]QTWQ[Pen]YW[hLeu]ENG-NH2 (thioether 1-6) [Ac-Cyclo-[[Abu]-QTWQ-[Pen]]-YW-[hLeu]-ENG-NH2] |  | > 1000 nM | 
B1 | 10 to 25 nM |  | 
XQTWQXFXXKNN (Ac; Pen-Pen disulfide; Phe[4-(2-acetylaminoethoxy)]; 2-Nal; Aib; Lys(Ac); NH2) [Ac-[Pen]-QTWQ-[Pen]-[Phe[4-(2-acetylaminoethoxy)]-[2-Nal]-[Aib]-[Lys(Ac)]-NN-NH2] | < 10 nM |  | 
Ac-[Pen]TTWQ[Pen][AEF][2Nal][Aib]K(Ac)NQ-NH2 (disulfide 1-6 (inferred)) [Ac-[Pen]-TTWQ-[Pen]-[Phe[4-(2-aminoethoxy)]-[2-Nal]-[Aib]-[Lys(Ac)]-NQ-NH2] | < 10 nM |  | 
Ac-[Abu]TWQC[AEF][2Nal][αMeK]ENG-NH2 (thioether 1-5) [Ac-Cyclo-[[Abu]-TWQC]-[Phe[4-(2-aminoethoxy)]]-[2-Nal]-[α-MeLys]-ENG-NH2] |  | < 10 nM | < 10 nM
Ac-[Abu]QTWQC[Gly(octyl)][2Nal][αMeK]K(Ac)NG-NH2 (thioether 1-6) [Ac-Cyclo-[[Abu]-QTWQC]-[Octgly]-[2-Nal]-[α-MeLys]-[Lys(Ac)]-NG-NH2] |  | ~10000 nM | 
Ac-[Abu]QTWQC[AEF][2Nal][αMeK]QNG-NH2 (thioether 1-6) [Ac-Cyclo-[[Abu]-QTWQC]-[Phe[4-(2-aminoethoxy)]]-[2-Nal]-[α-MeLys]-QNG-NH2] |  | < 10 nM | < 10 nM
Ac-[Abu]QTWQC[AEF][2Nal][αMeK]NNG-NH2 (thioether 1-6) [Ac-Cyclo-[[Abu]-QTWQC]-[Phe[4-(2-aminoethoxy)]]-[2-Nal]-[α-MeLys]-NNG-NH2] |  | < 10 nM | < 10 nM
Ac-[Abu]QTYQC[Phe(4-OMe)(5)][2Nal][αMeK]K(Ac)NG-NH2 (thioether 1-6) [Ac-Cyclo-[[Abu]-QTYQC]-[Phe(4-OMe)]-[2-Nal]-[α-MeLys]-[Lys(Ac)]-NG-NH2] |  | ~10000 nM | 
